How the values were obtained:
[1] = biological target: MLE-FLAG (maleless DExH helicase, wild-type) (Drosophila melanogaster, UniProt P24785 1-1293); assay: co-IP
[2] = biological target: T1, MSL1 (untagged, subunit of the DCCcore) (Drosophila melanogaster, UniProt P50535 1-1039); assay: co-IP
T1 sequence: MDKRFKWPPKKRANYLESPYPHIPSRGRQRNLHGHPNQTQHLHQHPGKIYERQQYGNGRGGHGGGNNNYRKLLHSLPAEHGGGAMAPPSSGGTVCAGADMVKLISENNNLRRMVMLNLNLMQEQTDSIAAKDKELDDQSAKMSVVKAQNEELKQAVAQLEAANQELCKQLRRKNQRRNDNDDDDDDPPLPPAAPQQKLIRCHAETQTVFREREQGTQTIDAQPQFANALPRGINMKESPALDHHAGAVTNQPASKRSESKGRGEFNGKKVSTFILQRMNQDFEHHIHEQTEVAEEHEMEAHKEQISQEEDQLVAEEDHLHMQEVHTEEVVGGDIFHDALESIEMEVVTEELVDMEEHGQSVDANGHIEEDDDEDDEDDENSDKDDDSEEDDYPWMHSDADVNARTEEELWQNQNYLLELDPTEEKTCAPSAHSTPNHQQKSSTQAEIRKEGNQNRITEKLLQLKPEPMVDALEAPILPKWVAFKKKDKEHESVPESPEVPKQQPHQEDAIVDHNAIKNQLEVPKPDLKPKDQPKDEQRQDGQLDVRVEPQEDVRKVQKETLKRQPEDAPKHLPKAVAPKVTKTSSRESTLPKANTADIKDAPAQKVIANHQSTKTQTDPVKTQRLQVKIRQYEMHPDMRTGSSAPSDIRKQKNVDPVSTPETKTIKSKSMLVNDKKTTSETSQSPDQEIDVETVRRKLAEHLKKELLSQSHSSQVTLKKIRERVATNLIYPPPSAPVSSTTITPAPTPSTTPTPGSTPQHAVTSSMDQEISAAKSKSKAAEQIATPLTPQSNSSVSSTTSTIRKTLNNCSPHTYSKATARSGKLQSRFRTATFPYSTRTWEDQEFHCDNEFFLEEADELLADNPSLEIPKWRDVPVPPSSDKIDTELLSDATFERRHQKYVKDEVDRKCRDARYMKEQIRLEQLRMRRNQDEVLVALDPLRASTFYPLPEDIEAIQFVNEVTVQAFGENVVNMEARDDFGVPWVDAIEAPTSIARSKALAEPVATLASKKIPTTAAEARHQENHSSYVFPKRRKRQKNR

B1: DCC DNA-binding module (MSL2-FLAG and MSL1 Δ865-1039) (complex)
chain 1: MAQTAYLKVTRIAMRSASNLSKRRVEELNSGLGELRQLLSCVVCCQLLVDPYSPKGKRCQHNVCRLCLRGKKHLFPSCTQCEGCSDFKTYEENRMMAAQLLCYKTLCVHLLHSALFGELAGMRPQVARELVPRIKLPPKTTQEFIREGSNISDTFDIFLPQPDLPFLKDMPTSLPAETPPTSAVTTPELPYDHHLNISDIEAEAAATAEQGHFSPLPLLPTGSRMGMLSHAGQIVIATESSESGFMDQAWTDQVDLSGTVSVSKYTNSGNNFAVSYVMPTSATTKFDPQELQIGQVVQMADSTQLAVLAAVEETVETSTQLTVLSTTVEETVETSTQLEVLTSAEEPNEISDQLANLQVEESDEALVEETVEEAEGTSIPSEVVAEHMEEDQHLDVHTSQSPTQTEMEEAVEEHVATKTQLGHVQTELQDAESLQKDFEDAKAAAEEAKEKEKDLHAISAELQKEDSDEPTLKRKRTRTLKASQAAKIEPVPSEVKTKVQSGKGALRRIRGKDKEEKVKPPKPKCRCGISGSSNTLTTCRNSRCPCYKSYNSCAGCHCVCCKNPHKEDYVESDEDDDLEDFEMPKDVPEPMTQSEEPVVAEPRQEENSMAPPDSSAPISLVPLNNLQQSQHPLVLVQNEKGEYQGFNIFQGSKPLDPVTVGFTIRVQLQHTDGFGSLPQYAYIMPTIDPPNPPAPSLSPPPPPAPDREVIEPPAKKFRTSRTRRGRANFSALDTVDELVSGGSRSNSAAGDRSSATDNAHSLFEEIMSGSDDL
chain 2: MDKRFKWPPKKRANYLESPYPHIPSRGRQRNLHGHPNQTQHLHQHPGKIYERQQYGNGRGGHGGGNNNYRKLLHSLPAEHGGGAMAPPSSGGTVCAGADMVKLISENNNLRRMVMLNLNLMQEQTDSIAAKDKELDDQSAKMSVVKAQNEELKQAVAQLEAANQELCKQLRRKNQRRNDNDDDDDDPPLPPAAPQQKLIRCHAETQTVFREREQGTQTIDAQPQFANALPRGINMKESPALDHHAGAVTNQPASKRSESKGRGEFNGKKVSTFILQRMNQDFEHHIHEQTEVAEEHEMEAHKEQISQEEDQLVAEEDHLHMQEVHTEEVVGGDIFHDALESIEMEVVTEELVDMEEHGQSVDANGHIEEDDDEDDEDDENSDKDDDSEEDDYPWMHSDADVNARTEEELWQNQNYLLELDPTEEKTCAPSAHSTPNHQQKSSTQAEIRKEGNQNRITEKLLQLKPEPMVDALEAPILPKWVAFKKKDKEHESVPESPEVPKQQPHQEDAIVDHNAIKNQLEVPKPDLKPKDQPKDEQRQDGQLDVRVEPQEDVRKVQKETLKRQPEDAPKHLPKAVAPKVTKTSSRESTLPKANTADIKDAPAQKVIANHQSTKTQTDPVKTQRLQVKIRQYEMHPDMRTGSSAPSDIRKQKNVDPVSTPETKTIKSKSMLVNDKKTTSETSQSPDQEIDVETVRRKLAEHLKKELLSQSHSSQVTLKKIRERVATNLIYPPPSAPVSSTTITPAPTPSTTPTPGSTPQHAVTSSMDQEISAAKSKSKAAEQIATPLTPQSNSSVSSTTSTIRKTLNNCSPHTYSKATARSGKLQSRFRTATFPYSTRTWEDQEFHCDNEFFLEEADELLADNP
[1]
  binding result: binds

B2: MSL3 with an N-terminal hexahistidine tag (natural protein)
chain: MTELRDETPLFHKGEIVLCYEPDKSKARVLYTSKVLNVFERRNEHGLRFYEYKIHFQGWRPSYDRCVRATVLLKDTEENRQLQRELAEAAKLQIRGDYSYKGTPDKPSAKKKRGGKAAHVEEPIVVPMDTGHLEAEHEMAPTPRAAGNRTRDNSGGKRKEKPPSGDGRLKGNRGRQTETFYNNAINDVSVYNHVPQEDRIMMRVSERLRELIEYDRNMIKVLGKQHALPARVPIVTIMENFVKQQAVELAISIKQDSSRARNTQSRNARMEREYDRVMSTVCMLKEVVDGLRIYFEFHVDDHLLYTEEKEYVHNYLTDDNMRNCSLILNKSYEYINPSGDTELIGLDGTPVVEGSGDTNGQIGVINIGGPEYEKQLQKCLLYIVTASGKNTAQAYERTSPYTAAYKLPVEMRGFLNETFKWRLLSAESPPEKSMVFGAPHLVRLMIKMPMFLNASPISNKKLEDLLPHLDAFINYLENHREWFDRENFVNSTALPQEDLQRELLDSLDGIAA
[2]
  binding result: binds
